Data set [1] deals with GST-SUMO-1. Nature of the data set: cross-linking; about 100 ng protein without or with increasing dsDNA, 10 min 37°C in NMR buffer (100 mM Na2PO4 pH 6.6, 1 mM EDTA, 1 mM DTT), UV 312 nm 10 min, SDS-PAGE and western blot (anti-GST or anti-SUMO-1); also with DNaseI treatment. (A western blot detects proteins with antibodies after separation by electrophoresis.)
The target of a further data set is SUMO-1 (human, UniProt P63165 1-101). Nature of the data set: UV crosslinking, Western blot; NMR: 100 mM NaPi pH 6.6, 1 mM DTT, 1 mM EDTA, temperature not stated; UV crosslink: 100 ng GST-SUMO-1 with 500 ng dsDNA, buffer not stated. Particulars: protein: recombinant; tags: untagged (GST removed by thrombin); 15N-labeled for NMR; blunt.
Data set [2] concerns the target GST-SUMO-1 (human, UniProt P63165 1-101). Nature of the data set: UV crosslinking, Western blot; complex migrates faster than with 65-mer; NMR: 100 mM NaPi pH 6.6, 1 mM DTT, 1 mM EDTA, temperature not stated; UV crosslink: 100 ng GST-SUMO-1 with 500 ng dsDNA, buffer not stated. The conditions noted are these: protein: recombinant; chain copies: 2; blunt.

Chain of SUMO-1 (P63165 whole entry): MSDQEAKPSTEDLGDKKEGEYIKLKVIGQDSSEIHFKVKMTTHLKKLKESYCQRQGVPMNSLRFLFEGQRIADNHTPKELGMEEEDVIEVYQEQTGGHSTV
Chain of GST-SUMO-1 (human, UniProt P63165 1-101) (P63165 whole entry): as above

As a reminder, the stoichiometry N is the number of molecules, sites or subunits per partner or assembly. GST-SUMO-1 gave a stoichiometry N with GST-SUMO-1 [1] of 2.

B1: 27-mer (dsDNA)
DNA 1: CGGGGCCGGGGCGGGCCGCGCAAGCAG
DNA 2: CTGCTTGCGCGGCCCGCCCCGGCCCCG
As to B1, the binding result in the data set with SUMO-1 and in the data set with GST-SUMO-1 [2] was “binds” each time.
